Measurements reported in IntAct's records for PubMed 19415799.

B1: Cell division protein FtsZ (Escherichia coli (strain K12)), P0A9A6 (parent)
chain: MFEPMELTNDAVIKVIGVGGGGGNAVEHMVRERIEGVEFFAVNTDAQALRKTAVGQTIQIGSGITKGLGAGANPEVGRNAADEDRDALRAALEGADMVFIAAGMGGGTGTGAAPVVAEVAKDLGILTVAVVTKPFNFEGKKRMAFAEQGITELSKHVDSLITIPNDKLLKVLGRGISLLDAFGAANDVLKGAVQGIAELITRPGLMNVDFADVRTVMSEMGYAMMGSGVASGEDRAEEAAEMAISSPLLEDIDLSGARGVLVNITAGFDLRLDEFETVGNTIRAFASDNATVVIGTSLDPDMNDELRVTVVATGIGMDKRPEITLVTNKQVQQPVMDRYQQHGMAPLTQEQKPVAKVVNDNAPQTAKEPDYLDIPAFLRKQAD
partner: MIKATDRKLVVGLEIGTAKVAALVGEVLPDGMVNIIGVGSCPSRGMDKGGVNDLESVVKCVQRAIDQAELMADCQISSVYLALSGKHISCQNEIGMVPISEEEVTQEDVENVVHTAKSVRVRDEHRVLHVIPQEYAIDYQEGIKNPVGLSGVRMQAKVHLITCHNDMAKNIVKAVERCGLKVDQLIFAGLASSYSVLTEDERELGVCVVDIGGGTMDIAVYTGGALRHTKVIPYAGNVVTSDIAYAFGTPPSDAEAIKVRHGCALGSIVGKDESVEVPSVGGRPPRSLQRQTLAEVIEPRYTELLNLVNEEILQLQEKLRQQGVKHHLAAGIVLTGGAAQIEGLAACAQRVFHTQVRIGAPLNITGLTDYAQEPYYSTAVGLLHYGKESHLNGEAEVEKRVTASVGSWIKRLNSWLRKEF

Variants of: B1
Conditions: with ftsa_ecoli ftsA

| effect of a mutation on the interaction | Variant |
| --- | --- |
| decreasing interaction strength | I374V |
